From US20160000910A1 (AC IMMUNE S A, published 2016)
One block for each binder: values may come before it.

Columns and labels:
[1] = target: Aβ1-42 peptide (Thioflavin T assay); assay: cell-based or functional assay
Aβ1-42 library peptide 1 = assay: peptide library ELISA, 10 µg/ml mAb
Text: (§1) The peptides in the peptide library were composed of 8, 9 or 10-mer aa peptides. A biotinylated complete Aβ1-42 peptide (human sequence) was used as positive control (Bachem, Bubendorf, Switzerland). In addition, longer peptides covering Aβ1-28, Aβ17-40, Aβ1-40 and Aβ1-42 were used to define the broader region to which these antibodies may bind. These 4 peptides were also biotinlyated (manufactured by Anaspec and purchased from ANAWA Trading SA, Switzerland). Epitope mapping was done according to the manufacturer's (Mimotopes) instructions. Briefly, Streptavidin coated plates (NUNC, Roskilde, Denmark) were blocked with 0.1% BSA in PBS overnight at 4° C. After washing with PBS-0.05% Tween 20, plates were coated for 1 hour at RT with the different peptides from the library, diluted in 0.1% BSA, 0.1% Sodium Azide in PBS to a final concentration of 10 μM. […] Plates were washed again and incubated with alkaline phosphatase conjugated goat anti mouse IgG (Jackson Immunresearch West Grove, Pa., USA) for 1 h at RT. After final washing, plates were incubated with phosphatase substrate (pNPP, Sigma-Aldrich, St Louis, Mo., USA) and read after 3 hours of incubation at 405 nm using an ELISA plate reader.

Aβ1-42 library peptide 2 = assay: peptide library ELISA, 10 µg/ml mAb
Text: as §1

Aβ1-42 library peptide 3 = assay: peptide library ELISA, 10 µg/ml mAb
Text: as §1

Aβ1-42 library peptide 4 = assay: peptide library ELISA, 10 µg/ml mAb
Text: as §1

Aβ1-42 library peptide 5 = assay: peptide library ELISA, 10 µg/ml mAb
Text: as §1

Aβ1-42 library peptide 6 = assay: peptide library ELISA, 10 µg/ml mAb
Text: as §1

Aβ1-42 library peptide 7 = assay: peptide library ELISA, 10 µg/ml mAb
Text: as §1

Aβ1-42 library peptide 8 = assay: peptide library ELISA, 10 µg/ml mAb
Text: as §1

Aβ1-42 library peptide 9 = assay: peptide library ELISA, 10 µg/ml mAb
Text: as §1

[2] = target: Aβ1-42 library peptide 10; assay: peptide library ELISA, 10 µg/ml mAb
Text: as §1

[3] = target: Aβ1-42 library peptide 11; assay: peptide library ELISA, 10 µg/ml mAb
Text: as §1

[4] = target: Aβ1-42 library peptide 12; assay: peptide library ELISA, 10 µg/ml mAb
Text: as §1

[5] = target: Aβ1-42 library peptide 13; assay: peptide library ELISA, 10 µg/ml mAb
Text: as §1

[6] = target: Aβ1-42 library peptide 14; assay: peptide library ELISA, 10 µg/ml mAb
Text: as §1

[7] = target: Aβ1-42 library peptide 15; assay: peptide library ELISA, 10 µg/ml mAb
Text: as §1

[8] = target: Aβ1-42 library peptide 16; assay: peptide library ELISA, 10 µg/ml mAb
Text: as §1

[9] = target: Aβ1-42 library peptide 17; assay: peptide library ELISA, 10 µg/ml mAb
Text: as §1

[10] = target: Aβ1-42 library peptide 18; assay: peptide library ELISA, 10 µg/ml mAb
Text: as §1

[11] = target: Aβ1-42 library peptide 19; assay: peptide library ELISA, 10 µg/ml mAb
Text: as §1

[12] = target: Aβ1-42 library peptide 20; assay: peptide library ELISA, 10 µg/ml mAb
Text: as §1

[13] = target: Aβ1-42 library peptide 21; assay: peptide library ELISA, 10 µg/ml mAb
Text: as §1

[14] = target: Aβ1-42 library peptide 22; assay: peptide library ELISA, 10 µg/ml mAb
Text: as §1

[15] = target: Aβ1-42 library peptide 23; assay: peptide library ELISA, 10 µg/ml mAb
Text: as §1

[16] = target: Aβ1-42 library peptide 24; assay: peptide library ELISA, 10 µg/ml mAb
Text: as §1

[17] = target: Aβ1-42 library peptide 25; assay: peptide library ELISA, 10 µg/ml mAb
Text: as §1

[18] = target: Aβ1-42 library peptide 26; assay: peptide library ELISA, 10 µg/ml mAb
Text: as §1

[19] = target: Aβ1-42 library peptide 27; assay: peptide library ELISA, 10 µg/ml mAb
Text: as §1

[20] = target: Aβ1-42 library peptide 28; assay: peptide library ELISA, 10 µg/ml mAb
Text: as §1

[21] = target: Aβ1-42 library peptide 29; assay: peptide library ELISA, 10 µg/ml mAb
Text: as §1

[22] = target: Aβ1-42 library peptide 30; assay: peptide library ELISA, 10 µg/ml mAb
Text: as §1

[23] = target: Aβ1-42 library peptide 31; assay: peptide library ELISA, 10 µg/ml mAb
Text: as §1

[24] = target: Aβ1-42 library peptide 32; assay: peptide library ELISA, 10 µg/ml mAb
Text: as §1

[25] = target: Aβ1-42 library peptide 33; assay: peptide library ELISA, 10 µg/ml mAb
Text: as §1

[26] = target: T1, biotinylated Aβ17-40 peptide (biotinylated (position not given)); assay: ELISA, biotinylated peptide on streptavidin plate
T1 construct: Peptide from Anaspec
T1 peptide: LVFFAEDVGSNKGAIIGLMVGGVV
Text: as §1

[27] = target: T1, biotinylated Aβ17-40 peptide; assay: ELISA, biotinylated peptide (Anaspec) on streptavidin plate, 10 µg/ml mAb
Text: as §1

[28] = target: T2, biotinylated Aβ1-40 peptide (biotinylated (position not given)); assay: as above
T2 construct: Peptide from Anaspec; also called Ab1-40
Text: as §1

[29] = target: T3, biotinylated complete Aβ1-42 peptide (human sequence) (human, biotinylated (position not given)); assay: peptide library ELISA, complete Aβ1-42 (Bachem) as positive control, 10 µg/ml mAb
T3 construct: Same peptide from two suppliers (1-42A Anaspec, 1-42B Bachem); the supplier is named under assay; also called Ab1-42; 1-42A (Anaspec)
Text: as §1

Aβ1-42 peptide (Thioflavin T assay), sequence (peptide, as listed by the source): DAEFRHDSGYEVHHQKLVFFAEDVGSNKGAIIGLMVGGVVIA
T3 sequence (peptide, as listed by the source): as above

- disaggregation of pre-aggregated Aβ1-42, Thioflavin T fluorescence, antibody to Aβ1-42 molar ratio 1:10 [1]: 52%
- disaggregation of pre-aggregated Aβ1-42, Thioflavin T fluorescence, antibody to Aβ1-42 molar ratio 1:100 [1]: 22%
- inhibition of Aβ1-42 aggregation, Thioflavin T fluorescence, antibody to Aβ1-42 molar ratio 1:10 [1]: 69%
- inhibition of Aβ1-42 aggregation, Thioflavin T fluorescence, antibody to Aβ1-42 molar ratio 1:100 [1]: 34%
- O.D. (Aβ1-42 library peptide 1): 0.1 O.D.
- O.D. (Aβ1-42 library peptide 2): 0.1 O.D.
- O.D. (Aβ1-42 library peptide 3): 0.12 O.D.
- O.D. (Aβ1-42 library peptide 4): 0.11 O.D.
- O.D. (Aβ1-42 library peptide 5): 0.11 O.D.
- O.D. (Aβ1-42 library peptide 6): 0.11 O.D.
- O.D. (Aβ1-42 library peptide 7): 0.11 O.D.
- O.D. (Aβ1-42 library peptide 8): 0.11 O.D.
- O.D. (Aβ1-42 library peptide 9): 0.11 O.D.
- O.D. [2]: 0.13 O.D.
- O.D. [3]: 0.11 O.D.
- O.D. [4]: 0.24 O.D.
- O.D. [5]: 0.17 O.D.
- O.D. [6]: 0.16 O.D.
- O.D. [7]: 0.14 O.D.
- O.D. [8]: 0.14 O.D.
- O.D. [9]: 0.13 O.D.
- O.D. [10]: 0.11 O.D.
- O.D. [11]: 0.1 O.D.
- O.D. [12]: 0.1 O.D.
- O.D. [13]: 0.1 O.D.
- O.D. [14]: 0.1 O.D.
- O.D. [15]: 0.11 O.D.
- O.D. [16]: 0.1 O.D.
- O.D. [17]: 0.11 O.D.
- O.D. [18]: 0.12 O.D.
- O.D. [19]: 0.13 O.D.
- O.D. [20]: 0.12 O.D.
- O.D. [21]: 0.2 O.D.
- O.D. [22]: 0.11 O.D.
- O.D. [23]: 0.12 O.D.
- O.D. [24]: 0.12 O.D.
- O.D. [25]: 0.11 O.D.
- binding result [26]: no binding (tested: 10 µg/ml)
- O.D. after background subtraction (mean) [27]: 0.02 O.D.
- O.D. after background subtraction (mean) [28]: 1.02 O.D.
B1: mouse monoclonal antibody ACI-11-Ab-9 (antibody, V domains shown)
VH: QVQLQQSDAELVKPGASVKISCKVSGYTFTDHTIHWMKQRPEQGLEWIGYIYPRDGSTKYNEKFKGKATLTADKSSSTAYMQLNSLTSEDSAVYFCARDYGYAFDYWGQGTTLTVSS
VL: QAVVTQESALTTSPGGTVILTCRSSTGAVTTSNYANWVQEKPDHLFTGLIGGTSNRAPGVPVRFSGSLIGDKAALTITGAQTEDDAMYFCALWYSTHYVFGGGTKVTVL
notes: also called clone FG1F9E4; DSM ACC2845

- disaggregation of pre-aggregated Aβ1-42, Thioflavin T fluorescence, antibody to Aβ1-42 molar ratio 1:10 [1]: 54%
- disaggregation of pre-aggregated Aβ1-42, Thioflavin T fluorescence, antibody to Aβ1-42 molar ratio 1:100 [1]: 18%
- inhibition of Aβ1-42 aggregation, Thioflavin T fluorescence, antibody to Aβ1-42 molar ratio 1:10 [1]: 66%
- inhibition of Aβ1-42 aggregation, Thioflavin T fluorescence, antibody to Aβ1-42 molar ratio 1:100 [1]: 30%
- O.D. (Aβ1-42 library peptide 1): 0.1 O.D.
- O.D. (Aβ1-42 library peptide 2): 0.1 O.D.
- O.D. (Aβ1-42 library peptide 3): 0.11 O.D.
- O.D. (Aβ1-42 library peptide 4): 0.1 O.D.
- O.D. (Aβ1-42 library peptide 5): 0.1 O.D.
- O.D. (Aβ1-42 library peptide 6): 0.1 O.D.
- O.D. (Aβ1-42 library peptide 7): 0.1 O.D.
- O.D. (Aβ1-42 library peptide 8): 0.1 O.D.
- O.D. (Aβ1-42 library peptide 9): 0.1 O.D.
- O.D. [2]: 0.1 O.D.
- O.D. [3]: 0.11 O.D.
- O.D. [4]: 0.21 O.D.
- O.D. [5]: 0.15 O.D.
- O.D. [6]: 0.12 O.D.
- O.D. [7]: 0.1 O.D.
- O.D. [8]: 0.14 O.D.
- O.D. [9]: 0.12 O.D.
- O.D. [10]: 0.1 O.D.
- O.D. [11]: 0.1 O.D.
- O.D. [12]: 0.1 O.D.
- O.D. [13]: 0.09 O.D.
- O.D. [14]: 0.1 O.D.
- O.D. [15]: 0.1 O.D.
- O.D. [16]: 0.1 O.D.
- O.D. [17]: 0.11 O.D.
- O.D. [18]: 0.12 O.D.
- O.D. [19]: 0.12 O.D.
- O.D. [20]: 0.11 O.D.
- O.D. [21]: 0.11 O.D.
- O.D. [22]: 0.11 O.D.
- O.D. [23]: 0.11 O.D.
- O.D. [24]: 0.11 O.D.
- O.D. [25]: 0.11 O.D.
- O.D. after background subtraction (mean) [27]: -0.02 O.D.
- O.D. after background subtraction (mean) [28]: 0.62 O.D.
- O.D. [29]: 0.69 O.D.
B2: mouse monoclonal antibody ACI-12-Ab-11 (antibody, V domains shown)
VH: B1 VH
VL: B1 VL
notes: also called clone FK2A6A6; DSM ACC2846
